Experimental data published in patent publication US20250057951A1, “DISCERNIBLE CELL SURFACE PROTEIN VARIANTS OF CD117 FOR USE IN CELL THERAPY” (UNIVERSITÄT BASEL, priority 2021, published 2025).
Entries after “also recorded” stand apart in the source; their conditions may differ.

Experiments:
antibody Refmab #1 [1] = assay: Octet screen: binding of CD117 D1-2-3 variants to captured Refmab #1; conditions: nm shift at end of association, top analyte concentration (500 nM)
Procedure: (§1) A more sophisticated analysis of binding to the elected variants was performed with antibody Refmab #1. Binding of Refmab #1 to wt and variants (analyte) was measured in an Octet system RED96e or R8 at 25° C. with shaking at 1,000 rpm using 1× kinetic buffer (Sartorius, PN: 18-1105). First, the elected variants were screened for their ability to bind Refmab #1 using three different concentrations of analytes. Antibody Refmab #1 was captured by Anti-Human Fc capture biosensor (AHC) (Sartorius, PN: 18-5060) for 300 s at 0.5 to 1 μg/mL. As an analyte, human CD117 wt and variants, containing only domains 1, 2 and 3 (CD117 D1-2-3), was titrated at 500 nM, 50 nM and 5 nM. Association and dissociation of the analyte to Refmab #1 was monitored for 300 s and 900 s, respectively. Reference subtraction was performed against buffer only wells. AHC tips were regenerated using 10 mM Gly-HCl pH 1.7. Data were analyzed using the Octet Data Analysis software HT 12.0. Data were fitted (when possible) to a 1:1 binding model. Kinetic rates ka and […] globally fitted. Binding level of the elected variants were compared to wild type and are shown as percent in FIG. 7. For this qualitative analysis, the binding level of the top analyte concentration at end of the association step was used.

antibody Refmab #1 [2] = assay: Octet titration, steady state KD of CD117 D1-2-3 variants to Refmab #1; format: binding
Sequence of Refmab #1 (as listed by the source, one chain of several): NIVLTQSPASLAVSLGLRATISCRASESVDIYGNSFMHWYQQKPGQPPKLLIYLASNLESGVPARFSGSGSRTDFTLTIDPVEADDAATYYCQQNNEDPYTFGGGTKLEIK
Procedure: To further characterize binding of Refmab #1 to CD117 D1-2-3 variants E73K, E73L, E73R, E73Y, D121H, D121K, S123K and S123F, the analytes were titrated at 7 different concentrations (from 2000 nM to 5 nM). Antibody Refmab #1 was captured by AHC biosensors for 300 s at 0.5 to 1 μg/mL. Association and dissociation to Refmab #1 was extended to 600 s and 1000 s, respectively. Steady state analysis was performed.

TF-1 cells = assay: SCF-dependent proliferation, SCF titration on TF-1 cells with CD117 variants (CellTiter-Glo); format: cell-based, human
Procedure: In another experiment, SCF-dependent proliferation of variants E73K, E73Y, D121K, S123F and S123K was compared against wildtype CD117. TF-1 cells were seeded at a cell concentration of 150 000 cells/ml in sterile, white cell culture treated plates with transparent bottom in RPMI+GlutaMax+10% FCS. Cells were treated with a titration of SCF. After 3 days of incubation a CellTiter-Glo 2.0 assay (Promega) was performed, luminescence was read in a luminometer (Envision plate reader) and EC50's was determined. Two different experiments with triplicates in each experiment were performed.

Refmab #1 = Refmab #1 titration on engineered TF-1 cells (flow cytometry); format: binding; conditions: 5-0.00015 μg/mL antibody; 4° C.
Procedure: Binding of Refmab #1 was assessed in a flow cytometry assay. TF-1 cells were seeded at a cell concentration of 1,000,000 cells/ml in FACS Buffer (PBS+2% FCS+1 mM EDTA). After a Fc blocking using 1:20 diluted TruStain (BioLegend, #422302) in FACS buffer for 15 minutes at 4° C., cells were washed twice with FACS buffer. Subsequently, a SR-1 titration was added to the cells using 5-0.00015 μg/mL antibody for 30 minutes at 4° C. on a plate shaker. Cells were washed twice with FACS buffer and a secondary labelled antibody (IgG (H+L) Cross-Adsorbed Goat anti-Human, Alexa Fluor® 488, Invitrogen, A11013) was added to the cells for 30 minutes at 4° C. on a plate shaker. Cells were washed twice with FACS buffer, before adding 1:100 diluted solution of 7AAD staining (cell viability) in FACS buffer for a couple of minutes and analyzing the cells using the Novocyte Quanteon (Agilent).

human wild-type CD117 = human wild-type CD117 (human, UniProt P10721 26-976); assay: cell-based or functional assay
Refmab #2 = assay: Octet: binding of CD117 variants to Refmab #2; conditions: qualitative Octet analysis
Procedure: as §1
A similar experiment to that in Example 7 was performed, but utilizing Refmab's #2 and #3.

Biotinylated Avitag-hSCF = target: T1, Biotinylated Avitag-hSCF (human, UniProt P21583 26-190, limits assumed, biotinylated Avitag); assay: BLI (Octet), steady state: biotinylated SCF on streptavidin biosensor, CD117 D1-2-3 variant as analyte; KD relative to WT
T1 construct: Bought reagent; also called hSCF (Acros Biosystems SCF-H82E1)
T1 sequence (P21583 26-190 limits assumed): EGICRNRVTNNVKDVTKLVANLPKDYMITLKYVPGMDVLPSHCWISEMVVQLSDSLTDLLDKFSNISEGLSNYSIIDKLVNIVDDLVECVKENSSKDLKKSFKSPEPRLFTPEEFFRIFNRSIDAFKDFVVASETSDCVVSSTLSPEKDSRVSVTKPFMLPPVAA
Procedure: Association was monitored for 300 s and dissociation for 600 s. […] Reference subtraction was performed against buffer only wells. Biosensors were not regenerated and a new set of SA biosensors was used for each analyte. Data were analyzed using the Octet Data Analysis software HT 12.0. Steady state data analysis was performed due to the fast on/off nature of the interaction.

SCF = target: T2, SCF (Homo sapiens, UniProt P21583); assay: Octet: binding of CD117 D1-2-3 variants to SCF; conditions: CD117 D1-2-3 constructs; steady state
T2 construct: purchased Acros Biosystems SCF-H82E1
T2 sequence (P21583 26-273): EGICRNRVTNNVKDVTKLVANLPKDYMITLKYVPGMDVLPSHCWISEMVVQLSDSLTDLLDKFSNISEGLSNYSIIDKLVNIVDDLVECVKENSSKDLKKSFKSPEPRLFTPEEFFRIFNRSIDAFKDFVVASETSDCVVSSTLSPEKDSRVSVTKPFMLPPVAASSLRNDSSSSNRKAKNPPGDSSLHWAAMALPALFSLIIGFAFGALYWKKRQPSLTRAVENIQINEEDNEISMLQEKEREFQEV
Procedure: SCF binding is one function of CD117. SCF binding is important for the transmission of functional signals by CD117. Binding of the elected variants to SCF was measured on an Octet system RED96e or R8 at 25° C. with shaking at 1000 rpm using 1× Kinetic Buffer (Sartorius, PN: 18-1105). […] Domain 1, 2, 3 comprise the binding site for SCF. Domains 4 and 5 were used as a negative, non-binding control.
CD117 D1-2-3 wt and variants thereof are titrated with different concentrations from 1000 to 5 nM. Association was monitored for 300 s and dissociation for 600 s. Binding to human CD117 domain 4 and 5 (CD117 D4-5) was performed under the same conditions as non-binding control. Reference subtraction was performed against buffer only wells. Biosensors were not regenerated and a new set of SA biosensors was used for each analyte. Data were analyzed using the Octet Data Analysis software HT 12.0. Steady state data analysis was performed due to the fast on/off nature of the interaction.

CD117 = assay: Blocking of SCF-induced CD117 phosphorylation (Tyr719 ELISA), wild type TF-1 cells; format: cell-based, human; conditions: 0.5 ug/mL antibody or 500 nM avapritinib; 100 ng/ml SCF 5 minutes
Procedure: (§2) SCF-dependent phosphorylation is another function of CD117. SCF-dependent phosphorylation was measured using TF-1 cells expressing CD117 (as shown in previous experiments). TF-1 cells were seeded at a concentration of 1 million cells/ml in 1 ml of Medium (RPMI1640 supplemented with GlutaMAX+10% heat inactivated FBS) in a 6-well plate. Cells were treated with 0.5 ug/mL antibody or 500 nM avapratinib. Cells were then treated with 100 ng/ml recombinant human SCF (1 mg/ml PeproGMP® Recombinant Human SCF) for 5 minutes, before cell collection. Cells were washed with ice-cold PBS, before resuspending cells in 250 μL Lysis Buffer (Lysis buffer from Signaling containing Protease Inhibitor and Phosphatase Inhibitor). Cells were flash frozen in liquid nitrogen and thawed at 37° C. twice, before freezing them at −80° C. until further usage. Undiluted samples were thawed and processed according to the manufacturers protocol for the PathScan® Phospho-c-Kit (Tyr719) Sandwich ELISA Kit (Cell Signaling). Absorbance (OD_450 nm) was assessed using the Envision (Perkin Elmer).
(§3) TF-1 cells (wild type, and variants E73K, E73Y, D121K, S123F and S123K of CD117) were seeded at a concentration of 1 million cells/mL in 2 ml of Medium (RPMI1640 supplemented with GlutaMAX+10% heat inactivated FBS) in a 6-well plate. Cells were pre-treated with 0.5 μg/ml of antibodies Refmab #1-Ernie or Refmab #1-Bert for 30 minutes, before adding 100 ng/ml recombinant human SCF (1 mg/mL PeproGMP® Recombinant Human SCF) for 5 minutes. Cells were collected, washed once with ice-cold PBS and resuspended in 500 μL Lysis Buffer (Lysis buffer from Signaling containing Protease Inhibitor and Phosphatase Inhibitor). Cells were then flash frozen in liquid nitrogen and thawed at 37° C. twice, before freezing them at −80° C. until further usage. Undiluted samples were thawed and processed according to the manufacturers protocol for the PathScan Phospho-c-Kit (Tyr719) Sandwich ELISA Kit (Cell Signaling) or the Human c-Kit (CD117) ELISA Kit (Abcam). Absorbance (OD_450 nm) was assessed using the Envision (Perkin Elmer).

variants of CD117 = assay: Blocking of SCF-induced CD117 phosphorylation (Tyr719 ELISA), TF-1 cells with CD117 variants; format: cell-based, human; conditions: 0.5 μg/ml antibody 30 minutes; 100 ng/ml SCF 5 minutes; same for E73K, E73Y, S123F (data not shown)
Procedure: as §2, §3

[3] = titration of SCF, 3 days, TF-1 cells with the CD117 variant

Sequence of antibody Refmab #1 (as listed by the source, one chain of several): as the sequence (as listed by the source, one chain of several) above

Q: Which “binding to Refmab #1 compared to wild type” value (antibody Refmab #1 [1]) does the source give for “E73Y: variant of human CD117 with substitution E73Y” here?
A: particular strong decrease in binding

Q: And the Kd (antibody Refmab #1 [2]; 7 concentrations 2000-5 nM, steady state, two individual experiments)?
A: 691 nM

Q: What about the “change of KD compared to wild type CD117” value (antibody Refmab #1 [2]; KD variant vs wild type) of the same molecule?
A: around 700 fold

Q: And the “EC50 Average” value (TF-1 cells; average of two experiments)?
A: 0.00401 ± 0.00037 µg/mL

Q: What about the “EC50 Experiment #1” value (TF-1 cells; [3]) of the same molecule?
A: 0.00437 µg/mL

Q: What about the “EC50 Experiment #2” value (TF-1 cells; [3]) of the same molecule?
A: 0.00364 µg/mL

Q: What about the “Binding of Refmab #1 to TF-1 cells expressing the CD117 variant” value (Refmab #1) of the same molecule?
A: completely abolished

B1: Refmab #1-Ernie (antibody, V domains shown)
VH: QVQLQQPGAELVKPGASVKMSCKASGYTFTSYNMHWVKQTPGQGLEWIGVIYSGNGDTSYNQKFKGKATLTADKSSSTAYMQINSLTSEDSAVYYCARERDTRFGNWGQGTLVTVSA
VL: EIVLTQSPSSLSASVGDRVTITCRASESVDIYGESFMHWYQQKPGKAPKLLIYLASNLESGVPSRFSGSGSGTDFTLTISSLQPEDFATYYCQQNNEEPYTFGQGTKLEIKR
Q: Which results are given for B1?
A: IC50 in a SCF-dependent proliferation assay on HSPC's (human wild-type CD117): 0.00521 µg/mL; IC50 in a SCF-dependent proliferation assay on TF-1 cells (human wild-type CD117): 0.0176 µg/mL

B2: Refmab #1-Bert (antibody, V domains shown)
VH: QVQLQQPGAELVKPGASVKMSCKASGYTFTSYNMHWVKQTPGQGLEWIGVIYSGNGDTSYNQKFKGKATLTADKSSSTAYMQINSLTSEDSAVYYCARERDTRFGNWGQGTLVTVSA
VL: EIVLTQSPSSLSASVGDRVTITCRASESVDIYGESFMHWYQQKPGKAPKLLIYLASNLESGVPSRFSGSGSGTDFTLTISSLQPEDFATYYCQQNKEEPYTFGQGTKLEIKR
Q: B2 was tested. Which “IC50 in a SCF-dependent proliferation assay on HSPC's” value (human wild-type CD117) did it give?
A: 0.0313 µg/mL

Q: And the “IC50 in a SCF-dependent proliferation assay on TF-1 cells” value (human wild-type CD117)?
A: 0.0441 µg/mL

B3: R122H (receptor)
extracellular domains 1, 2 and 3: QPSVSPGEPSPPSIHPGKSDLIVRVGDEIRLLCTDPGFVKWTFEILDETNENKQNEWITEKAEATNTGKYTCTNKHGLSNSIYVFVRDPAKLFLVDHSLYGKEDNDTLVRCPLTDPEVTNYSLKGCQGKPLPKDLRFIPDPKAGIMIKSVKRAYHRLCLHCSVDQEGKSVLSEKFILKVRPAFKAVPVVSVSKASYLLREGEEFTVTCTIKDVSSSVYSTWKRENSQTKLQEKYNSWHHGDFNYERQATLTISSARVNDSGVFMCYANNTFGSANVTTTLEVVD
notes: not in the list MOLECULES; also called human CD117 D1-2-3 variant R122H
Q: Which “binding to Refmab #1 compared to wild type” value (antibody Refmab #1 [1]) does the source give for B3 here?
A: particular strong decrease in binding

Q: What about the “binding to Refmab #2 compared to wild type CD117” value (Refmab #2) of the same molecule?
A: strong decrease in binding

Q: Does B3 bind (Biotinylated Avitag-hSCF)?
A: binds

B4: S239H: variant of human CD117 with substitution S239H (protein)
chain: QPSVSPGEPSPPSIHPGKSDLIVRVGDEIRLLCTDPGFVKWTFEILDETNENKQNEWITEKAEATNTGKYTCTNKHGLSNSIYVFVRDPAKLFLVDRSLYGKEDNDTLVRCPLTDPEVTNYSLKGCQGKPLPKDLRFIPDPKAGIMIKSVKRAYHRLCLHCSVDQEGKSVLSEKFILKVRPAFKAVPVVSVSKASYLLREGEEFTVTCTIKDVHSSVYSTWKRENSQTKLQEKYNSWHHGDFNYERQATLTISSARVNDSGVFMCYANNTFGSANVTTTLEVVDKG
Q: Which “KD increase of SCF binding compared to wild type CD117” value (SCF) does the source give for B4 here?
A: less than three-fold; also recorded: less than four-fold

Q: What about the “binding to Refmab #2 compared to wild type CD117” value (Refmab #2) of the same molecule?
A: strong decrease in binding

B5: S239K: variant of human CD117 with substitution S239K (protein)
chain: QPSVSPGEPSPPSIHPGKSDLIVRVGDEIRLLCTDPGFVKWTFEILDETNENKQNEWITEKAEATNTGKYTCTNKHGLSNSIYVFVRDPAKLFLVDRSLYGKEDNDTLVRCPLTDPEVTNYSLKGCQGKPLPKDLRFIPDPKAGIMIKSVKRAYHRLCLHCSVDQEGKSVLSEKFILKVRPAFKAVPVVSVSKASYLLREGEEFTVTCTIKDVKSSVYSTWKRENSQTKLQEKYNSWHHGDFNYERQATLTISSARVNDSGVFMCYANNTFGSANVTTTLEVVDKG
Q: How did the “binding to Refmab #2 compared to wild type CD117” value (Refmab #2) turn out when B5 was run?
A: strong decrease in binding

B6: Refmab #1-Ernie: improved version of Refmab #1, VH SEQ ID 15, VL SEQ ID 62 (antibody, V domains shown)
VH: QVQLQQPGAELVKPGASVKMSCKASGYTFTSYNMHWVKQTPGQGLEWIGVIYSGNGDTSYNQKFKGKATLTADKSSSTAYMQINSLTSEDSAVYYCARERDTRFGNWGQGTLVTVSA
VL: EIVLTQSPSSLSASVGDRVTITCRASESVDIYGESFMHWYQQKPGKAPKLLIYLASNLESGVPSRFSGSGSGTDFTLTISSLQPEDFATYYCQQNNEEPYTFGQGTKLEIKRTV
modifications: Refmab #1 VH
Q: How did the “blocking of SCF-induced phosphorylation, wild type cells” value (CD117) turn out when B6 was run?
A: blocked

Q: And the “blocking of SCF-dependent CD117 phosphorylation, D121K and S123K variants” value (variants of CD117)?
A: unaffected
